Source: publication PMC6972931, “YqfB protein from Escherichia coli: an atypical amidohydrolase active towards N^4-acylcytosine derivatives” (Scientific Reports, 2020)

How the values were obtained:
Assay in all cases: spectrophotometric hydrolysis assay, fit with product inhibition
Assay type in all cases: biochemical, Escherichia coli
Settings in all cases: 50 mM potassium phosphate, pH 8.0, 22 °C
[1] = test system: T1, CC(=O)Nc1ccn([C@@H]2O[C@H](CO)[C@@H](O)[C@H]2O)c(=O)n1
T1 construct: full length (103 residues), C-terminal His6 kept, pET21b, expressed in E. coli BL21(DE3) yqfB::Km, monomer
Description: (§1) spectrophotometric hydrolysis assay, fit with product inhibition on YqfB with a C-terminal His6 tag

CC(=O)Nc1cc[nH]c(=O)n1 = test system: T2, CC(=O)Nc1cc[nH]c(=O)n1
T2 construct: full length (103 residues), C-terminal His6 kept, pET21b, expressed in E. coli BL21(DE3) yqfB::Km, monomer
Description: as §1

[2] = substrate: O=C(Nc1ccn([C@@H]2O[C@H](CO)[C@@H](O)[C@H]2O)c(=O)n1)c1ccccc1
Description: as §1

[3] = substrate: CCCCCOC(=O)Nc1nc(=O)n([C@@H]2O[C@H](C)[C@@H](O)[C@H]2O)cc1F
Description: as §1

[4] = substrate: CCCCCC(=O)Nc1ccn([C@H]2C[C@H](O)[C@@H](CO)O2)c(=O)n1
Description: as §1

[5] = substrate: CC(C)C(=O)Nc1ccn([C@H]2C[C@H](O)[C@@H](CO)O2)c(=O)n1
Description: as §1

[6] = substrate: CC(=O)Nc1ccn([C@@H]2O[C@H](CO)[C@@H](O)[C@H]2O)c(=O)n1
Description: as §1

[7] = substrate: CC(=O)Nc1cc[nH]c(=O)n1
Description: as §1

[8] = substrate: CC(=O)Nc1ccn([C@H]2C[C@H](O)[C@@H](CO)O2)c(=O)n1
Description: as §1

[9] = substrate: CC(=O)Nc1nc(O)ncc1F
Description: as §1

[10] = substrate: O=C(Nc1ccn([C@H]2C[C@H](O)[C@@H](CO)O2)c(=O)n1)c1ccccc1
Description: as §1

[11] = substrate: CC(=O)Nc1ccn([C@@H]2O[C@H](CO)[C@@H](O)[C@H]2O)c(=O)n1; remark: listed apart in the source
Description: spectrophotometric hydrolysis assay, fit with product inhibition on recombinant YqfB with an N-terminal His6 tag

[12] = substrate: CC(=O)Nc1ccn([C@@H]2O[C@H](CO)[C@@H](O)[C@H]2O)c(=O)n1; remark: listed apart in the source
Description: spectrophotometric hydrolysis assay, fit with product inhibition on recombinant wild-type YqfB (tag-free)

For “YqfB with a C-terminal His6 tag (Escherichia coli K-12; H70A)”, the Km [1] was “(5.0 ± 0.02) × 10^−5 M”, the kcat [1] was 23 ± 0.029 s⁻¹ and the kcat/Km [1] was 400000 ± 2000 M⁻¹ s⁻¹.

With “YqfB with a C-terminal His6 tag (Escherichia coli K-12; D27A)” the Km [1] was “(2.9 ± 0.11) × 10^−4 M”, the kcat [1] was 300 ± 16 s⁻¹ and the kcat/Km [1] was 1.2e+06 ± 10000 M⁻¹ s⁻¹.

In the case of “YqfB with a C-terminal His6 tag (Escherichia coli K-12; Y89A)”, the Km [1] is reported as “(2.2 ± 0.06) × 10^−3 M”, the kcat [1] is reported as 40 ± 1.3 s⁻¹ and the kcat/Km [1] is reported as 19000 ± 900 M⁻¹ s⁻¹.

For “YqfB with a C-terminal His6 tag (Escherichia coli K-12; E74A)”, the Km (CC(=O)Nc1cc[nH]c(=O)n1) was “(3.0 ± 0.02) × 10^−4 M”, the kcat (CC(=O)Nc1cc[nH]c(=O)n1) was 0.22 ± 0.001 s⁻¹ and the kcat/Km (CC(=O)Nc1cc[nH]c(=O)n1) was 700 ± 4 M⁻¹ s⁻¹. For the same molecule, the Km [1] was “(2.0 ± 0.03) × 10^−6 M”, the kcat [1] was 0.07 ± 0.0006 s⁻¹ and the kcat/Km [1] was 30000 ± 500 M⁻¹ s⁻¹.

B1: YqfB with a C-terminal His6 tag (Escherichia coli K-12) (protein)
chain: MQPNDITFFQRFQDDILAGRKTITIRDESESHFKTGDVLRVGRFEDDGYFCTIEVTATSTVTLDTLTEKHAEQENMTLTELKKVIADIYPGQTQFYVIEFKCL
notes: full length (103 residues), C-terminal His6 kept, pET21b, expressed in E. coli BL21(DE3) yqfB::Km, monomer
With B1 the Km [2] was “(5.1 ± 0.03) × 10^−3 M”, the Km [3] was “(7.0 ± 0.2) × 10^−4 M” and the kcat [3] was 0.016 ± 0.003 s⁻¹. For the same molecule, the kcat/Km [3] was 22 ± 0.1 M⁻¹ s⁻¹, the Km [4] was “(1.4 ± 0.1) × 10^−4 M” and the Km [5] was “(1.9 ± 0.08) × 10^−3 M”. The kcat [5] was 75 ± 3 s⁻¹, the kcat/Km [5] was 37500 ± 600 M⁻¹ s⁻¹ and the Km [6] was “(6.2 ± 0.1) × 10^−5 M”. The kcat [6] was 157 ± 1 s⁻¹, the kcat/Km [6] was 2.2e+06 ± 100000 M⁻¹ s⁻¹ and the Km [7] was “(7.0 ± 0.2) × 10^−5 M”. The Km [8] was “(4.00 ± 0.04) × 10^−4 M”, the kcat [8] was 101 ± 1 s⁻¹ and the kcat/Km [8] was 230000 ± 2000 M⁻¹ s⁻¹. For the same molecule, the Km [9] was “(2.1 ± 0.2) × 10^−3 M”, the kcat [9] was 90 ± 7 s⁻¹ and the kcat/Km [9] was 40000 ± 3000 M⁻¹ s⁻¹. For the same molecule, the Km [10] was “(3.00 ± 0.01) × 10^−4 M”, the kcat [10] was 0.07 ± 0.01 s⁻¹ and the kcat/Km [10] was 230 ± 10 M⁻¹ s⁻¹.

B2: recombinant YqfB with an N-terminal His6 tag (Escherichia coli K-12) (protein)
chain: MQPNDITFFQRFQDDILAGRKTITIRDESESHFKTGDVLRVGRFEDDGYFCTIEVTATSTVTLDTLTEKHAEQENMTLTELKKVIADIYPGQTQFYVIEFKCL
notes: full length (103 residues), N-terminal His6 kept, pETDuet-1, expressed in E. coli BL21(DE3) yqfB::Km
B2 was tested, and the Km [11] was “(7.0 ± 0.1) × 10^−5 M”, the kcat [11] was 154 ± 3 s⁻¹ and the kcat/Km [11] was 2.5e+06 ± 200000 M⁻¹ s⁻¹.

B3: recombinant wild-type YqfB (tag-free) (Escherichia coli K-12) (protein)
chain: MQPNDITFFQRFQDDILAGRKTITIRDESESHFKTGDVLRVGRFEDDGYFCTIEVTATSTVTLDTLTEKHAEQENMTLTELKKVIADIYPGQTQFYVIEFKCL
notes: full length (103 residues), no tag, pET21b-yqfB
For B3, the Km [12] was “(7.0 ± 0.1) × 10^−5 M”, the kcat [12] was 196 ± 1 s⁻¹ and the kcat/Km [12] was 2.8e+06 ± 300000 M⁻¹ s⁻¹.
